The supplement of paper PMC9112550, “Optimization of the antimicrobial peptide Bac7 by deep mutational scanning” (BMC Biology, 2022)

Tested on: Escherichia coli TOP10
Assay: shrunken log2 fold change of peptide-encoding DNA abundance (4.5 h post-induction vs induction); higher = less antimicrobial activity (less host growth inhibition)
Conditions: time post-induction: 4.5 h; library: site-saturation at positions 5, 18, 19, 20
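Also: peptides expressed intracellularly from a pBAD plasmid library in pooled LB shake-flask culture, induced with 0.3% L-arabinose, DNA abundance read by NGS, three biological replicates, DESeq2 with apeglm shrinkage.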

Row | Sequence | shrunken log2 fold change
1 | RRIRERPPRLPRPRPRPRSGPRP | -0.049
2 | RRIRWRPPRLPRPRPRPCEWPRP | 0.0102
3 | RRIRWRPPRLPRPRPRPNLDPRP | 0.278
4 | RRIRPRPPRLPRPRPRPQRMPRP | 0.209
5 | RRIRLRPPRLPRPRPRPAPCPRP | 0.0424
6 | RRIRYRPPRLPRPRPRPHFVPRP | -0.182
7 | RRIRQRPPRLPRPRPRPESPPRP | 0.0606
8 | RRIRDRPPRLPRPRPRPYGIPRP | -0.00973
9 | RRIRTRPPRLPRPRPRPGKVPRP | 0.145
10 | RRIRMRPPRLPRPRPRPKVRPRP | 0.00262
11 | RRIRKRPPRLPRPRPRPEIWPRP | 2.45
12 | RRIRGRPPRLPRPRPRPHTDPRP | 0.103
13 | RRIRTRPPRLPRPRPRPFSWPRP | -0.294
14 | RRIRMRPPRLPRPRPRPHLQPRP | 0.0376
15 | RRIRLRPPRLPRPRPRPWIYPRP | -0.385
16 | RRIRDRPPRLPRPRPRPVSIPRP | -0.105
17 | RRIRTRPPRLPRPRPRPDMLPRP | 0.035
18 | RRIRQRPPRLPRPRPRPTATPRP | 0.0728
19 | RRIRRRPPRLPRPRPRPTFLPRP | 0.115
20 | RRIRKRPPRLPRPRPRPTWHPRP | 0.371
21 | RRIRVRPPRLPRPRPRPDTRPRP | -0.129
22 | RRIRWRPPRLPRPRPRPLMYPRP | -0.0465
23 | RRIRDRPPRLPRPRPRPVGHPRP | 0.423

Row | Sequence | shrunken log2 fold change
24 | RRIRQRPPRLPRPRPRPKVNPRP | -0.0444
25 | RRIRERPPRLPRPRPRPKPIPRP | -0.128
26 | RRIRSRPPRLPRPRPRPTRPPRP | 0.645
27 | RRIRTRPPRLPRPRPRPAAQPRP | 0.312
28 | RRIRMRPPRLPRPRPRPIMQPRP | 0.0343
29 | RRIRCRPPRLPRPRPRPVSFPRP | -0.228
30 | RRIRCRPPRLPRPRPRPGLYPRP | -0.432
31 | RRIRSRPPRLPRPRPRPIAIPRP | -0.0732
32 | RRIRRRPPRLPRPRPRPSHHPRP | -0.173
33 | RRIRARPPRLPRPRPRPDYIPRP | 0.00625
34 | RRIRYRPPRLPRPRPRPIYSPRP | -0.143
35 | RRIRARPPRLPRPRPRPRGNPRP | 0.494
36 | RRIRTRPPRLPRPRPRPPVGPRP | 1.18
37 | RRIRQRPPRLPRPRPRPFSAPRP | -0.0161
38 | RRIRNRPPRLPRPRPRPTTNPRP | 0.365
39 | RRIRFRPPRLPRPRPRPYWIPRP | -1.07
40 | RRIRVRPPRLPRPRPRPMWRPRP | 0.127
41 | RRIRLRPPRLPRPRPRPKYFPRP | -0.269
42 | RRIRTRPPRLPRPRPRPVNSPRP | -0.342
43 | RRIRERPPRLPRPRPRPQFSPRP | -0.0998
44 | RRIRERPPRLPRPRPRPGTFPRP | -0.378
45 | RRIRPRPPRLPRPRPRPFQAPRP | -0.216
46 | RRIRQRPPRLPRPRPRPSIFPRP | -0.635

Row | Sequence | shrunken log2 fold change
47 | RRIRLRPPRLPRPRPRPGRVPRP | 0.242
48 | RRIRKRPPRLPRPRPRPVYRPRP | -0.667
49 | RRIRDRPPRLPRPRPRPAVMPRP | -0.00993
50 | RRIRIRPPRLPRPRPRPQVYPRP | 0.0822
51 | RRIRLRPPRLPRPRPRPAVSPRP | -0.0934
52 | RRIRRRPPRLPRPRPRPYFDPRP | -0.823
53 | RRIRDRPPRLPRPRPRPKWDPRP | 0.488
54 | RRIRPRPPRLPRPRPRPEDFPRP | -0.0193
55 | RRIRMRPPRLPRPRPRPPKEPRP | -0.0231
56 | RRIRWRPPRLPRPRPRPVGHPRP | 0.243
57 | RRIRPRPPRLPRPRPRPQKSPRP | 0.0462
58 | RRIRCRPPRLPRPRPRPFINPRP | -1.1
59 | RRIRCRPPRLPRPRPRPPGQPRP | 0.494
60 | RRIRYRPPRLPRPRPRPTHSPRP | -0.698
61 | RRIRGRPPRLPRPRPRPTGCPRP | 0.562
62 | RRIRARPPRLPRPRPRPCTQPRP | 0.148
63 | RRIRIRPPRLPRPRPRPLSAPRP | -0.112
64 | RRIRWRPPRLPRPRPRPFYDPRP | -0.21
65 | RRIRGRPPRLPRPRPRPCFPPRP | 0.309
66 | RRIRFRPPRLPRPRPRPNIWPRP | -0.224
67 | RRIRFRPPRLPRPRPRPSVLPRP | -0.246
68 | RRIRKRPPRLPRPRPRPDTVPRP | 0.00611
69 | RRIRMRPPRLPRPRPRPQMQPRP | 0.108

Row | Sequence | shrunken log2 fold change
70 | RRIRTRPPRLPRPRPRPMAVPRP | -0.296
71 | RRIRKRPPRLPRPRPRPVQVPRP | -0.0596
72 | RRIRPRPPRLPRPRPRPFPTPRP | -0.189
73 | RRIRIRPPRLPRPRPRPFCCPRP | -0.205
74 | RRIRWRPPRLPRPRPRPCPNPRP | -0.184
75 | RRIRVRPPRLPRPRPRPDRDPRP | 0.0414
76 | RRIRFRPPRLPRPRPRPYFCPRP | -1.05
77 | RRIRKRPPRLPRPRPRPREWPRP | 1.77
78 | RRIRFRPPRLPRPRPRPTMKPRP | -0.178
79 | RRIRDRPPRLPRPRPRPRVDPRP | 0.325
80 | RRIRERPPRLPRPRPRPGDSPRP | -1.02
81 | RRIRHRPPRLPRPRPRPKTGPRP | -0.0854
82 | RRIRHRPPRLPRPRPRPIYSPRP | 0.0188
83 | RRIRVRPPRLPRPRPRPWVQPRP | -0.021
84 | RRIRIRPPRLPRPRPRPWMMPRP | -0.178
85 | RRIRKRPPRLPRPRPRPKGQPRP | 0.00959
86 | RRIRWRPPRLPRPRPRPKQKPRP | 0.0665
87 | RRIRRRPPRLPRPRPRPIIHPRP | -0.584
88 | RRIRFRPPRLPRPRPRPEDEPRP | 0.0432
89 | RRIRNRPPRLPRPRPRPHMGPRP | -0.133
90 | RRIRKRPPRLPRPRPRPSHVPRP | 0.164
91 | RRIRHRPPRLPRPRPRPRCKPRP | -0.053
